Measured values reported in article PMC7961048, “Hierarchized phosphotarget binding by the seven human 14-3-3 isoforms” (Nature Communications, 2021).

How the values were obtained:
[1] = target: phosphorylated 14-3-3ζ-18E6 chimera (14-3-3ζ∆C-GGGG-18E6 PBM) (human | human papillomavirus type 18) (UniProt P63104); experiment: crystal structure
14-3-3β = 14-3-3β (UniProt P31946); experiment: competitive FP, FITC-HSPB6 phosphopeptide tracer; settings: reference: unphosphorylated 18E6 peptide; sites T156
14-3-3γ = 14-3-3γ (UniProt P61981); experiment: competitive FP, FITC-HSPB6 phosphopeptide tracer; settings: reference: unphosphorylated 18E6 peptide; sites T156
14-3-3ε = 14-3-3ε (UniProt P62258); experiment: competitive FP, FITC-HSPB6 phosphopeptide tracer; settings: reference: unphosphorylated 18E6 peptide; sites T156
14-3-3ζ = 14-3-3ζ (UniProt P63104); experiment: competitive FP, FITC-HSPB6 phosphopeptide tracer; settings: reference: unphosphorylated 18E6 peptide; sites T156
14-3-3η = 14-3-3η (UniProt Q04917); experiment: competitive FP, FITC-HSPB6 phosphopeptide tracer; settings: reference: unphosphorylated 18E6 peptide; sites T156
14-3-3σ = 14-3-3σ (UniProt P31947); experiment: competitive FP, FITC-HSPB6 phosphopeptide tracer; settings: reference: unphosphorylated 18E6 peptide; sites T156
14-3-3τ = 14-3-3τ (UniProt P27348); experiment: competitive FP, FITC-HSPB6 phosphopeptide tracer; settings: reference: unphosphorylated 18E6 peptide; sites T156

Substance	stoichiometry N [1]	binding against the reference (14-3-3β)	binding against the reference (14-3-3γ)	binding against the reference (14-3-3ε)	binding against the reference (14-3-3ζ)	binding against the reference (14-3-3η)	binding against the reference (14-3-3σ)	binding against the reference (14-3-3τ)
phosphorylated 14-3-3ζ-18E6 chimera (14-3-3ζ∆C-GGGG-18E6 PBM) (from UniProt P63104 1-229)	2							
HPV18 E6 (18E6) (from UniProt P06463) p18E6 peptide		gained	gained	gained	gained	gained	gained	gained
